According to paper PMC4200421, “A distinct tethering step is vital for vacuole membrane fusion” (eLife, 2014):

T1: Vam3p (vacuolar Qa-SNARE), on 3Q-SNARE proteoliposomes (S. cerevisiae, UniProt Q12241 1-283)
T1 construct: Vam3p, vacuolar Qa-SNARE of Saccharomyces cerevisiae; Bait of the co-immunoprecipitation (anti-Vam3p antibody); In every experiment Vam3p stood on the same proteoliposomes as the Qb-SNARE Vti1p and the Qc-SNARE Vam7p (3Q-RPLs); Constructs are in cited work; also called 3Q-RPLs; 3Q-SNAREs
T1 sequence (looked up): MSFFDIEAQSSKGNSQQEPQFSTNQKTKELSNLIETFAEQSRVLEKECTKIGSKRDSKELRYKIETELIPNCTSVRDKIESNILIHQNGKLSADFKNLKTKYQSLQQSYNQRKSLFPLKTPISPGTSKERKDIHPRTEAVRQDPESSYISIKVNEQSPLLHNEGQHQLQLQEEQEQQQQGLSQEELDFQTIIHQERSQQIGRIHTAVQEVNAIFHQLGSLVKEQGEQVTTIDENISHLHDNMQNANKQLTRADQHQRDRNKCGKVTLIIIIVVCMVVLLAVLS

B1: Nyv1p (vacuolar R-SNARE), membrane-anchored, on R-SNARE proteoliposomes (natural protein, S. cerevisiae, UniProt Q12255 1-253, looked up)
chain: MKRFNVSYVEVIKNGETISSCFQPFQKNENYGTITSANEQITPVIFHNLIMDMVLPKVVPIKGNKVTKMSMNLIDGFDCFYSTDDHDPKTVYVCFTLVDMPKILPIRILSGLQEYESNATNELLSSHVGQILDSFHEELVEYRNQTLNSSGNGQSSNGNGQNTISDIGDATEDQIKDVIQIMNDNIDKFLERQERVSLLVDKTSQLNSSSNKFRRKAVNIKEIMWWQKVKNITLLTFTIILFVSAAFMFFYLW
notes: Nyv1p, vacuolar R-SNARE of Saccharomyces cerevisiae, membrane-anchored form; Schwartz and Merz, 2009; Zucchi and Zick, 2011 for the SNARE constructs; Exchanged into octylglucoside buffer before reconstitution; also called wild-type Nyv1p; 1R; source: pure recombinant protein, purified as described (cited work), reconstituted into proteoliposomes by detergent dialysis
B2: Soluble Nyv1p (sR), Nyv1(Δtm), Nyv1p(1-231) (domain or fragment, S. cerevisiae, UniProt Q12255 1-231, looked up)
chain: MKRFNVSYVEVIKNGETISSCFQPFQKNENYGTITSANEQITPVIFHNLIMDMVLPKVVPIKGNKVTKMSMNLIDGFDCFYSTDDHDPKTVYVCFTLVDMPKILPIRILSGLQEYESNATNELLSSHVGQILDSFHEELVEYRNQTLNSSGNGQSSNGNGQNTISDIGDATEDQIKDVIQIMNDNIDKFLERQERVSLLVDKTSQLNSSSNKFRRKAVNIKEIMWWQKVKN
notes: Nyv1p of Saccharomyces cerevisiae without its transmembrane anchor (Δtm); the methods name only Nyv1(Δtm); also called sNyv1p; recombinant soluble domain of Nyv1p; source: purified as GST-TEVsite-Nyv1(Δtm) as described (Thorngren et al., 2004), cleaved with TEV protease prior to use; not shown: GST, N-terminal, cleaved

Molecular target: T1, Vam3p (vacuolar Qa-SNARE), on 3Q-SNARE …
Assay: co-IP; 1R-RPLs, or soluble Nyv1p at 100 nM, with 3Q-RPLs (Vam3p, Vti1p, Vam7p); 40 µl reaction 40 min at 27°C with HOPS (100 nM) or its buffer; diluted 10-fold in RIPA buffer with affinity-purified anti-Vam3p antibody (50 µg/ml) and 10 µM GST-Nyv1p; protein A magnetic beads, 2 hr room temperature; immunoblot with anti-Nyv1p
Details: both partners purified

| binding result | Binder |
| --- | --- |
| binds | B1 |
| binds | B2 |
